Data taken from patent US20080138280A1, “Composition and Methods For Inhibiting Cell Survival” (The Cleveland Clinic Foundation, priority 2003, published 2008).

B1: Apo2L/TRAIL: tumor necrosis factor-related apoptosis-inducing ligand; trimeric recombinant human Apo2L/TRAIL (Genentech) (protein, UniProt P50591 1-281, looked up)
Tumor necrosis factor ligand …: MAMMEVQGGPSLGQTCVLIVIFTVLLQSLCVAVTYVYFTNELKQMQDKYSKSGIACFLKEDDSYWDPNDEESMNSPCWQVKWQLRQLVRKMILRTSEETISTVQEKQQNISPLVRERGPQRVAAHITGTRGRSNTLSSPNSKNEKALGRKINSWESSRSGHSFLSNLHLRNGELVIHEKGFYYIYSQTYFRFQEEIKENTKNDKQMVQYIYKYTSYPDPILLMKSARNSCWSKDAEYGLYSIYQGGIFELKENDRIFVSVTNEHLIDMDHEASFFGAFLVG

Assays:
[1] = tested on: NF-κB DNA binding activity; experiment: Electrophoretic mobility shift assay (EMSA) of NF-κB DNA binding activity, A375 cells; format: cell-based, human; settings: NO donor 100 μM pre-treatment 16 h, Apo2L/TRAIL 100 ng/ml 1 h
Method: Electrophoretic mobility shift assay (EMSA). These methods apply generally to FIGS. 5, 9-10 which employ EMSA analysis. In FIG. 5, A375 cells were treated with NO donors (NO-Cbl, NOC-18, SNAP, 100 μM, 16 h), or with Apo2L/TRAIL (100 ng/ml) or TNF-α (20 ng/ml) for 1 h, or with the combination of NO donors (16 h) followed by Apo2L/TRAIL or TNF-α (1 h). Plates were washed twice with ice-cold PBS. Cells were resuspended in cold 1× lysis buffer (20 mM HEPES, 20 mM NaF, 1 mM Na3VO4, 1 mM EDTA, 1 mM DTT, 100 mM NaCl, 10% glycerol and protease inhibitors) and incubated on ice for 30 min followed by centrifugation at 4° C. at 10,000 rpm for 10 min. Supernatants were transferred to fresh tubes and protein concentrations were assessed using the Bradford method (Bio-RAD protein assay, BioRad, Hercules, Calif.). The NF-κB consensus binding sequence (5′[…] 3′) from the IFN-β gene promoter was end-labeled with γ^32P dATP ([…]) using T4 polynucleotide kinase. DNA binding reactions were performed in 20 μl volume containing 10 μg protein, 20 mM HEPES, 10 mM KCl, 0.1% NP-40, 0.5 mM DIT and 10% glycerol. The binding reaction was performed for 20 min at 25° C. Complexes were separated from the free probe on 6% non-denaturing polyacrylamide gels in 0.5×TBE buffer at 200 V for 2 h. Gels were dried and exposed to film.
Inhibition of NF-κB survival signaling by NO-Cbl. Because NF-κB is an important cell survival regulator, we examined the effects of NO-Cbl on NF-κB DNA binding activity. The NF-κB binding sequence from the IFN-β gene promoter was used as a probe to assess DNA binding activity. A375 cells were treated with TNF-α (20 ng/ml), Apo2L/TRAIL (100 ng/ml) or NO-Cbl (100 μM). FIG. 5, illustrates an Electrophoretic Mobility Shift Assay (EMSA) of NF-κB DNA binding activity. Pre-treatment of A375 cells with NO-Cbl inhibited the NF-κB DNA binding activity induced by Apo2L/TRAIL and TNF-α. […] NF-κB-luc transfected A375 cells were pre-treated with NO-Cbl followed by Apo2L/TRAIL or TNF-α. […] Cell lysates were analyzed for NF-κB-luc reporter activity. […]

[2] = tested on: phospho-IκBα in A375 cells; experiment: Western blot analysis of IκBα phosphorylation; format: cell-based, human; settings: pre-treatment 100 μM, Apo2L/TRAIL 100 ng/ml
Method: Gel Electrophoresis and Immunoblot analyses. Please see FIG. 4. Whole cell lysates were prepared in 1× lysis buffer (50 mM Tris-Cl, pH 8.0, 1% Triton×100, 10% glycerol, 1 mM EDTA, 250 mM NaCl, 1 mM DTT, 1 mM PMSF, 10 μg/ml aprotinin, 10 μg/ml leupeptin, and 10 μg/ml pepstatin) for subsequent immunoblotting studies. The SDS-PAGE was conducted by using the Laemmli buffer system and 12% polyacrylamide gels. Proteins were transferred onto PVDF membranes by the semidry method (Trans Blot SD, BioRad, Hercules, Calif.). Binding of the primary and secondary antibodies was performed according to standard protocols. Membranes were immunoblotted with pAb to caspase-3, caspase-8, XIAP (BD-Pharmingen, San Diego, Calif.), PARP (BioMOL, Plymouth Meeting, Pa.), cIAP-1, FLIP, pIκBα and IκBα (Cell Signaling, Beverly, Mass.) followed by incubation with HRP conjugated secondary antibodies (Pierce, Rockford, Ill.). Immunoreactive bands were visualized by using enhanced chemiluminescence (Perkin Elmer, Boston, Mass.). Equal protein loading was confirmed by reprobing with monoclonal anti-actin antibody (Sigma Chemicals Co, St. Louis, Mo.). All immunoblots in this study were repeated 3 times with reproducible results.
NO-Cbl treatment affected the phosphorylation state of IκBα, the prototypic inhibitor of NF-κB. Western blot analysis was performed to assess levels of phospho-IκBα and IκBα. FIG. 6 is a Western blot analysis of IκB levels and IκBα phosphorylation. IκBα and phospho-IκBα protein levels were determined in A375 whole cell lysates. […] NO-Cbl, NOC-18, and SNAP pre-treatment all inhibited Apo2L/TRAIL-induced IκBα phosphorylation.

NF-κB signaling = experiment: Inhibition of NF-κB signaling by NO donors; format: cell-based; settings: summary statement
Description: SNAP, SNP (nitroprusside) and NOC-18 inhibit NF-κB signaling.

[3] = tested on: CMN1 (normal melanocytes); experiment: Sulforhodamine B cell growth assay, normal cells; format: cell-based, human
Method: (§1) Cell Culture treatments. Cells were maintained in RPMI or DMEM (Mediatech, Herndon, Va.) containing 5% fetal bovine serum (Hyclone, Logan, Utah) and 1% Antibiotic-Antimycotic (GEBCO, Invitrogen Carlsbad, Calif.) as recommended per the American Type Culture Collection media protocol for each cell line. Cells were maintained in 5% CO2 at 37° C. in a humidified tissue culture incubator. Primary non-tumorigenic […] cell lines (DMN-1 and CMN-1), and human foreskin fibroblasts (HFF; CCF, Cleveland, Ohio) were cultured in DMEM-F12 medium supplemented with 10% FBS. Cells were confirmed as mycoplasma free.
(§2) Sulforhodamine B Cell Growth Assay. Cells were harvested with 0.5% trypsin/0.53 mM EDTA, washed with PBS and resuspended in media containing 10% FBS. Cells were plated in 96-well plates in 0.2-ml aliquots. Cells were allowed to adhere to the plate for 4 h and then NO-Cbl was added in different concentrations to the assay plate. A minimum of four were performed for each treatment. After 16 h, various chemotherapeutic agents including cytokines were added at different concentrations. Growth was monitored by the sulforhodamine B (SRB; Sigma Chemical, St. Louis, Mo.) colorimetric assay. After 36 h, the medium was removed, and the cells were fixed with 10% trichloroacetic acid and stained with SRB. Bound dye was eluted from the cells with 10 mM Tris-HCl (pH 10.5) and absorbance was measured at 570 nm using a Lab systems Multiskan RC 96-well plate reader (Lab Systems Multiscan RC, Thermo Lab Systems, Franklin, Mass.). To quantify the growth of the cells, the experimental absorbance values (Aexp) were compared with initial absorbance readings representing the starting cell numbers (Aini). To determine the starting cell number, an additional 96-well plate was seeded with cells and fixed at the beginning of the experiment. After 5 days growth, the untreated control cells and drug treated cells were fixed and stained with SRB. The absorbances derived from the initial plate and from the untreated cells at the end of the growth period (Afin) were defined as 0% and 100% growth, respectively. The percentage control growth (100%×[Aexp−Aini]/[Afin−Aini]) is expressed as a percentage of untreated controls.
(§3) Anti-tumor effects of NO-Cbl, Apo2L/TRAIL, and the combination iii vitro. NO-Cbl enhances the anti-cellular effects of Apo2L/TRAIL against malignant Apo2L/TRAIL-resistant cell lines. First the antiproliferative effects of three melanoma lines A375, WM9, and WM3211 (previously reported to be resistant to Apo2L/TRAIL) were measured. Although Apo2L/TRAIL was used as the chemotherapeutic agents, a wide range of anti-cancer drugs and techniques would be enhanced by the NO based cobalamin compounds due to their effective inhibition of the cell survival mechanism. Such other chemotherapeutic agents are tested in the following examples. […] The SRB antiproliferative assay, used by the National Cancer Institute (NCI) to evaluate new chemotherapeutic agents was used herein. Median effect analysis was used to analyze drug interactions between NO-Cbl and Apo2L/TRAIL. Cells were pre-treated with NO-Cbl for 16 h followed by Apo2L/TRAIL for 24 h.
(§4) The effects of nitrosylcobalamin (NO-Cbl), Apo2L/TRAIL, and the combination on the proliferation of melanoma cell lines A375, WM9, and WM3211 and normal cell lines CMN1, DMN1, and fibroblasts were observed. Cells were treated with NO-Cbl, Apo2L/TRAIL, or pre-treated with NO-Cbl followed by Apo2L/TRAIL for three days, and growth was measured by the colorimetric sulforhodamine B assay. Data points were generated to represent the mean of four replicates±standard error of the mean (SEM). Synergy between NO-Cbl and Apo2L/TRAIL was determined by median effect analysis, (combination index >1 indicates antagonism, =1 indicates additivity, and <1 indicates synergy). The combination index is represented in FIG. 1 and as the combination index observed at the specified concentrations. […]

[4] = tested on: DMN1 (normal melanocytes); experiment: Sulforhodamine B cell growth assay, normal cells; format: cell-based, human
Method: as §1, §2, §3, §4

normal fibroblasts = experiment: Sulforhodamine B cell growth assay, normal cells; format: cell-based, human
Method: as §1, §2, §3, §4

A375 melanoma xenografts = experiment: Growth of subcutaneous A375 xenografts in nude mice; format: in vivo
Description: In vivo experiments. Please see FIG. 2. The Institutional Animal Care and Use Committee at the Cleveland Clinic Foundation approved all procedures for animal experimentation. Five week-old NCR male athymic nude homozygous (nu/nu) mice (Taconic, Germantown, N.Y.) were inoculated with A375 tumors. Each experimental group contained 4 mice, each mouse bearing two tumors, on opposite flanks. There were four experimental groups (untreated, single agents, and the combination). Cultured tumor cells (4×10^6) were inoculated into flanks in the mid-axillary line. NO-Cbl was given twice daily (50 mg/kg s.c.) and recombinant trimeric Apo2L/TRAIL (50 mg/kg s.c.) was administered every other day, starting on day 2. Tumor volume was measured three times a week using the formula for a prolate spheroid: (4/3) πab^2 where 2a=major axis, 2b=minor axis. Formalin-fixed sections were processed by the Cleveland Clinic Histology Core. Sections were stained with hematoxylin and eosin and evaluated for pathologic changes in a blinded fashion.
Anti-tumor effects of NO-Cbl, Apo2L/TRAIL, and the combination in vivo. To test drug activity in vivo, subcutaneous A375 xenografts were inoculated in nude mice. FIG. 2. illustrates the effect of NO-Cbl, Apo2L/TRAIL and the combination on the growth of A375 melanoma xenografts. NCR male athymic nude (nulnu) mice (n=4 per group) were injected subcutaneously with 4×10^6 A375 cells. Drug treatments began on day two (2) after injection of tumor cells. NO-Cbl was administered twice daily for the duration of the study. Apo2L/TRAIL was administered every other day. The control mice received phosphate buffered saline. The tumor volume was measured three times per week. Data points represent the mean tumor volume (in cubic mm)±SEM. Daily drug treatments began on day 2 following implantation, at which time tumors were both visible and palpable. Untreated control tumors grew unimpeded. After 25 days, the tumors from mice treated with NO-Cbl were 67.4% smaller than the control tumors (p≦0.0002) and tumors from mice treated with Apo2L/TRAIL were 89.4% smaller than the control tumors (p≦0.00001). The tumors from mice treated with the combination of NO-Cbl and Apo2L/TRAIL were 95.7% smaller than the control tumors (p≦0.000005).

A375 cells = experiment: TUNEL apoptosis assay; format: cell-based, human; settings: single agent, 36 h; NO-Cbl 100 μM or Apo2L/TRAIL 100 ng/ml
Method: TUNEL assay. Please see FIG. 3. A375 cells were cultured for 36 h and exposed to various treatments (control, NO-Cbl, Apo2L/TRAIL and NO-Cbl+Apo2L/TRAIL. Apoptotic cells were detected by TUNEL (terminal deoxynucleotidyltransferase-mediated dUTP-biotin nick end-labeling) staining using a commercially available kit (APO-BRDU kit, BD-Pharmingen, San Diego, Calif.). Cells were processed according to the manufacturer's recommended protocol. The percentage of FITC-positive cells was analyzed by fluorescent activated cell scanning (FACS, Becton Dickinson, Facsvantage, San Diego, Calif.).
Cell line A375 has a defect in endogenous TRAIL gene induction therefore, additive cellular responses from exogenous TRAIL/Apo2L were avoided. TUNEL assays of A375 cells treated in vitro with NO-Cbl, Apo2L/TRAIL, or the combination were performed. FIG. 3 illustrates a TUNEL apoptosis assay in accordance with the present invention. A375 cells were treated with NO-Cbl, Apo-2L/TRAIL, and the combination. […] The highest levels of apoptosis were observed when cells were pre-treated with NO-Cbl followed by Apo2L/TRAIL treatment. Treatment for 36 h with NO-Cbl (100 μM) or Apo2L/TRAIL (100 ng/ml) induced 6.2% and 5.4% TUNEL-positive cells, respectively.

Molecule | NF-κB DNA binding activity induced by Apo2L/TRAIL [1] | IκBα phosphorylation induced by Apo2L/TRAIL [2] | NF-κB signaling (NF-κB signaling) | antiproliferative effect on normal cells [3] | antiproliferative effect on normal cells [4] | antiproliferative effect on normal cells (normal fibroblasts) | tumor regression (A375 melanoma xenografts; A375 xenografts, nude mice) | tumors smaller than the control tumors (A375 melanoma xenografts; after 25 days, NO-Cbl 50 mg/kg s.c. twice daily, Apo2L/TRAIL 50 mg/kg s.c. every other day, from day 2) | TUNEL-positive cells (A375 cells)
CC(=O)NC(C(=O)O)C(C)(C)SN=O (racemic) [SNAP, S-nitroso-N-acetyl-D,L-penicillamine, reference compound] | inhibited | inhibited | inhibit |  |  |  |  |  | 
B1 |  |  |  | completely resistant | completely resistant | completely resistant | Tumor regression was observed | 89.4% | 5.4%
